In experiment [1] the target is T1, full-length human TIGIT on the cell membrane (CHO-K-TIGIT cells; TIGIT-Jurkat cells) (human) (UniProt Q495A1).
T1 sequence (looked up): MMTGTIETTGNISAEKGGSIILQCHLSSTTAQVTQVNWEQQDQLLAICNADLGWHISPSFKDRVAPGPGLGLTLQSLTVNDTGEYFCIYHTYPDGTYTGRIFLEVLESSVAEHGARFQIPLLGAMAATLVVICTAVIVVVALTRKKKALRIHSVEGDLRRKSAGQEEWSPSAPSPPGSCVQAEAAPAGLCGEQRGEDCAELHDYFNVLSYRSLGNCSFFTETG
The experiment is described as follows: cell-based or functional assay.

Experiment [2] has as its target T2, full-length human TIGIT on the cell membrane (CHO-K-TIGIT cells; TIGIT-Jurkat cells) (human, UniProt Q495A1 22-244).
T2 construct: whole, on cells; Also used here for TIGIT on human PBMCs in the IFN-gamma assay; also called CHO-TIGIT
T2 sequence (looked up): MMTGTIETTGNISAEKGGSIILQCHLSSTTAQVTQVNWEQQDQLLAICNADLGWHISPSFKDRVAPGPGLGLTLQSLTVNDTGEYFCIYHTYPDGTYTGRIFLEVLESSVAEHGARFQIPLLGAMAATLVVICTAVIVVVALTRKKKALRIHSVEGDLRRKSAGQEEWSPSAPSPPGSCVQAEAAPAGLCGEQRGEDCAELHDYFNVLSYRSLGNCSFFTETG
The experiment is described as follows: flow cytometry on TIGIT-Jurkat cells. The procedure: The binding activity of the anti-TIGIT antibody-IL2 fusion proteins to TIGIT on the cell membrane was tested using flow cytometry. A Jurkat cell line stably expressing human TIGIT was first established. The full-length human TIGIT gene (Sinobio) was amplified by PCR and cloned into the mammalian cell expression vector pcDNA3.1 (Invitrogen), using Not I and Xba I as cloning enzymes. The TIGIT expression plasmid was transfected into Jurkat cells to construct a stable Jurkat cell line expressing TIGIT (TIGIT-Jurkat).
The flow cytometry study method for the binding of TIGIT antibody-IL2 fusion proteins to cell membrane-bound TIGIT is summarized as follows: FACS buffer (1×PBS+0.5% BSA solution) was prepared. The required number of TIGIT-Jurkat cells, about 1×10⁵ to 5×10⁵ cells per sample, was taken and incubated with HC1-IL2 wt/LC1 (ART-Ig) and HC1-IL2mut/LC1 (ART-Ig) diluted to a certain ratio in FACS buffer, approximately 100 μL, at 4° C. for 30 minutes. After washing the cells once with FACS buffer, they were resuspended in FITC-conjugated anti-human IgG (Abcam: 6854) diluted in FACS buffer and incubated at 4° C. for 30 minutes. Finally, after washing the cells with FACS buffer, they were resuspended in 200 μL of FACS buffer for analysis. The parent TIGIT antibody P03479 was used as a control.
For orientation: Flow cytometry measures light scatter and fluorescence of single cells or particles in a stream.

The target in experiment [3] is T3, recombinant human TIGIT (Human TIGIT His, Sino Biological, 10917-H08H) (human, UniProt Q495A1 22-138).
T3 construct: range 1-138; Bought protein; also called recombinant human TIGIT antigen; recombinant human TIGIT protein; not shown: C-terminal histidine tag
T3 sequence (looked up): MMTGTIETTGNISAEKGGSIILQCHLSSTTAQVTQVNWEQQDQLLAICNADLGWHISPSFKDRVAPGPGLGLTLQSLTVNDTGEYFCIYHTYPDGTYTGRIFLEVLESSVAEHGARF
As to the kind of experiment: ELISA on recombinant human TIGIT protein. Background: An ELISA detects its analyte on a solid surface through an enzyme-linked reagent.

In experiment [4] the target is recombinant human TIGIT (Human TIGIT His, Sino Biological, 10917-H08H) (human) (UniProt Q495A1). The experiment is described as follows: BLI (GATOR), antibody on human antibody capture probe, TIGIT-His 40-10 nM.

Regarding Tiragolumab (antibody), the IFNγ release from PHA-activated PBMCs, increase in experiment [1] was 16%.

B1: humanized anti-TIGIT monoclonal antibody P03479 (antibody, V domains shown)
VH: EVQVVESGGGLVKPGGSLRLSCAASGFTFSTYAMSWVRQAPGKGLEWVAEISSGGSHTFYADTVKGRFTISRDNAKNTLYLQMNSLRAEDTAVYYCARKTLDYYALDYWGQGTTVTVSS
VL: DVQITQSPSYLSASVGDRVTINCRASKSISKYLAWYQQKPGKAPKLLIYSGSRLQSGIPSRFSGSGYGTDFTLTISSLQPEDFATYYCQQHNEYPWTFGGGTKLEIK
notes: Only variable domains are tied to P03479 itself; HC1/LC1 of the fusion proteins derive from it
In general, EC50 refers to the concentration needed to bring the measured effect to its halfway point. The molecule B1 returned an EC50 in experiment [2] of 0.26 µg/mL.

B2: humanized anti-TIGIT monoclonal antibody P03489 (antibody, V domains shown)
VH: QVQLVQSGAEVKKPGASVKVSCKASGYTFISYNIYWVRQAPGQGLEWMGGVNPSNGNTNFNENFQGRVTMTVDTSISTAYMELSRLRSDDTAVYYCTRGNYYGYEFAYWGQGTTVTVSS
VL: DIQMTQSPSSMSASVGDRVTITCKASQHVSTAVAWYQQKPGKAPKLLIYSPSYRYTGVPSRFSGSGSGTDFTFTISSVQPEDIATYYCQQHYSTPWTFGGGTKLEIK
notes: Only variable domains are tied to P03489 itself; HC2/LC2 of the fusion proteins derive from it
Turning to B2, the EC50 in experiment [3] turned out to be 0.5 nM.

B3: human-mouse chimeric TIGIT monoclonal antibody 7103-01 (hFc) (antibody, from a related filing, V domains shown)
VH: QVQLQQPGAELVKPGASVKLSCKASGYTFISYNIYWVKQRPGQGLEWIGGVNPSNGNTNFNENFKSKATLTVDKSSSTAYMQLSSLTSDDSAVYFCTRGNYYGYEFAYWGQGTLVTVSA
VL: DIVMTQSHKFMSTSVGDRVSITCKASQHVSTAVAWYQQKPGQSPKLLIYSPSYRYTGVPDRFTGSGSGTDFTFTISSVQAEDLAVYYCQQHYSTPWTFGGGTKLEIK
By Kd is commonly meant the constant that tells how readily two partners part at equilibrium. The koff is the first-order rate constant of dissociation. Broadly, the kon is the second-order rate constant of association. Turning to B3, in experiment [4], the Kd was 1.73 nM, the koff was determined as 0.000951 s⁻¹ and the kon came to 549000 M⁻¹ s⁻¹.

B4: human-mouse chimeric TIGIT monoclonal antibody 7103-07 (hFc) (antibody, from a related filing, V domains shown)
VH: EVQVVESGGGLVKPGGTLKLSCAASGFTFSTYAMSWVRQSPEQRLEWVAEISSGGSHTFYSDTVTGRFTISRDNAQNTLYLEMNSLRSEDTAMYYCARKTLDYYALDYWGQGTSVTVSS
VL: DVQITQSPSYLAASPGETITINCRASKSISKYLAWYQEKPGKTNKLLIYSGSRLQSGIPSKFSGSGYGTDFTLTISSLEPEDFAMYYCQQHNEYPWTFGGGTKVEIK
In the case of B4, in experiment [4], the equilibrium dissociation constant (Kd) stood at 2.96 nM, the koff was found to be 0.00169 s⁻¹ and the kon came out at 573000 M⁻¹ s⁻¹.

Values taken from patent US20240400680A1 (SHANGHAI CELGEN BIO PHARMACEUTICAL, published 2024).
